Experimental data: paper PMC6555819, “Comprehensive study of nuclear receptor DNA binding provides a revised framework for understanding receptor specificity”
Numbering of substitutions follows the chain as printed.

B1: NRC3_random_hg19_277_o1 (dsDNA)
DNA 1: GCGGTGGCACACGCATGGAATCCCAGCGCTTTGGGAGCGATTGACAGCGTAGAATGAAGG
DNA 2: CCTTCATTCTACGCTGTCAATCGCTCCCAAAGCGCTGGGATTCCATGCGTGTGCCACCGC
B2: NRC3_wobSeed1_DR0_T8A_o1 (dsDNA)
DNA 1: GCCAAACAAGGTCAAGGTCAAAGTCGGTTTGTGCCAGCGATTGACAGCGTAGAATGAAGG
DNA 2: CCTTCATTCTACGCTGTCAATCGCTGGCACAAACCGACTTTGACCTTGACCTTGTTTGGC
B3: NRC3_wobSeed117_DR4_T11G_o1 (dsDNA)
DNA 1: GCCGTCAAAGGTCAACTAAGGTAACGTAAAGCACGCGCGATTGACAGCGTAGAATGAAGG
DNA 2: CCTTCATTCTACGCTGTCAATCGCGCGTGCTTTACGTTACCTTAGTTGACCTTTGACGGC
B4: NRC3_wobSeed25_DR1_T8C_o1 (dsDNA)
DNA 1: GCCAAACCAGGTCAAAGGTCAAAGTCGAGCCAACCAGCGATTGACAGCGTAGAATGAAGG
DNA 2: CCTTCATTCTACGCTGTCAATCGCTGGTTGGCTCGACTTTGACCTTTGACCTGGTTTGGC
B5: NRC3_wobSeed44_DR1_T13G_o1 (dsDNA)
DNA 1: GCTGAATGAGGTGAAAGATCAGGGAACGTGGCGTCGGCGATTGACAGCGTAGAATGAAGG
DNA 2: CCTTCATTCTACGCTGTCAATCGCCGACGCCACGTTCCCTGATCTTTCACCTCATTCAGC
B6: NRC3_wobSeed135_DR5_A5C_o1 (dsDNA)
DNA 1: GCCGCACTAGGTCATTGACAGGACAGTGAATAGTAAGCGATTGACAGCGTAGAATGAAGG
DNA 2: CCTTCATTCTACGCTGTCAATCGCTTACTATTCACTGTCCTGTCAATGACCTAGTGCGGC
B7: NRC3_wobSeed30_DR1_C8A_o1 (dsDNA)
DNA 1: GCACTAGAAGGCCAAGGGTCACTCAAGATTAGTCCGGCGATTGACAGCGTAGAATGAAGG
DNA 2: CCTTCATTCTACGCTGTCAATCGCCGGACTAATCTTGAGTGACCCTTGGCCTTCTAGTGC
B8: NRC3_wobSeed25_DR1_T25A_o1 (dsDNA)
DNA 1: B4 DNA 1 with C8T, T25A
DNA 2: B4 DNA 2 with A36T, G53A
B9: NRC3_random_hg19_273_o1 (dsDNA)
DNA 1: GCTGCAGGGTTTCTACCGAGAAGTCTGCTGTTAGTCGCGATTGACAGCGTAGAATGAAGG
DNA 2: CCTTCATTCTACGCTGTCAATCGCGACTAACAGCAGACTTCTCGGTAGAAACCCTGCAGC
B10: NRC3_wobSeed93_DR3_A22C_o1 (dsDNA)
DNA 1: GCAGTCAAAGTTCATCTAGGTCACGTAAGATATGCTGCGATTGACAGCGTAGAATGAAGG
DNA 2: CCTTCATTCTACGCTGTCAATCGCAGCATATCTTACGTGACCTAGATGAACTTTGACTGC
B11: NRC3_wobSeed113_DR4_G15T_o1 (dsDNA)
DNA 1: GCATATGTAGGTTATCTGGGGTCATTCAGACTAGGCGCGATTGACAGCGTAGAATGAAGG
DNA 2: CCTTCATTCTACGCTGTCAATCGCGCCTAGTCTGAATGACCCCAGATAACCTACATATGC
B12: NRC3_random_hg19_177_o1 (dsDNA)
DNA 1: GCATCTTTAGCAAGATACTTCATAGGTACTACTGTGGCGATTGACAGCGTAGAATGAAGG
DNA 2: CCTTCATTCTACGCTGTCAATCGCCACAGTAGTACCTATGAAGTATCTTGCTAAAGATGC
B13: NRC3_random_hg19_142_o1 (dsDNA)
DNA 1: GCGGTACTCAGTATGTGAAGAATCATGTTGAGGCAGGCGATTGACAGCGTAGAATGAAGG
DNA 2: CCTTCATTCTACGCTGTCAATCGCCTGCCTCAACATGATTCTTCACATACTGAGTACCGC
B14: NRC3_wobSeed45_DR1_A9T_o1 (dsDNA)
DNA 1: GCTGTCAATGTTCAAAGGTAACGTAAGTATCCACACGCGATTGACAGCGTAGAATGAAGG
DNA 2: CCTTCATTCTACGCTGTCAATCGCGTGTGGATACTTACGTTACCTTTGAACATTGACAGC
B15: NRC3_wobSeed124_DR5_T23G_o1 (dsDNA)
DNA 1: GCCCTACTGGGCCATTCAGAGGGCATTGATCATATGGCGATTGACAGCGTAGAATGAAGG
DNA 2: CCTTCATTCTACGCTGTCAATCGCCATATGATCAATGCCCTCTGAATGGCCCAGTAGGGC
B16: NRC3_random_hg19_491_o1 (dsDNA)
DNA 1: GCCGCCTTTAGATTGCAGGCTCCTGGAGAGCTGTCTGCGATTGACAGCGTAGAATGAAGG
DNA 2: CCTTCATTCTACGCTGTCAATCGCAGACAGCTCTCCAGGAGCCTGCAATCTAAAGGCGGC
B17: NRC3_random_hg19_388_o1 (dsDNA)
DNA 1: GCACAAGTCTACAAACCCTGGGAGAATGAGAAGTGTGCGATTGACAGCGTAGAATGAAGG
DNA 2: CCTTCATTCTACGCTGTCAATCGCACACTTCTCATTCTCCCAGGGTTTGTAGACTTGTGC
B18: NRC3_wobSeed53_DR2_A17T_o1 (dsDNA)
DNA 1: GCCCTTACGGGTCACGTGGTTATAGCACGACGAGCGGCGATTGACAGCGTAGAATGAAGG
DNA 2: CCTTCATTCTACGCTGTCAATCGCCGCTCGTCGTGCTATAACCACGTGACCCGTAAGGGC
B19: NRC3_random_hg19_198_o1 (dsDNA)
DNA 1: GCAGTTATGTCCACTTGCATAAGTGCAACGTTTGGCGCGATTGACAGCGTAGAATGAAGG
DNA 2: CCTTCATTCTACGCTGTCAATCGCGCCAAACGTTGCACTTATGCAAGTGGACATAACTGC
B20: NRC3_random_hg19_28_o1 (dsDNA)
DNA 1: GCCATCTAAAGCCTTGACAGGCTGGGATAGCTGCTTGCGATTGACAGCGTAGAATGAAGG
DNA 2: CCTTCATTCTACGCTGTCAATCGCAAGCAGCTATCCCAGCCTGTCAAGGCTTTAGATGGC
B21: NRC3_random_hg19_444_o1 (dsDNA)
DNA 1: GCGGGTGTGGTCGTGGGCACCTGCAGTCCCAGCTACGCGATTGACAGCGTAGAATGAAGG
DNA 2: CCTTCATTCTACGCTGTCAATCGCGTAGCTGGGACTGCAGGTGCCCACGACCACACCCGC

Biological target: RXRa (Homo sapiens, UniProt P19793)
Sequence (P19793 whole entry): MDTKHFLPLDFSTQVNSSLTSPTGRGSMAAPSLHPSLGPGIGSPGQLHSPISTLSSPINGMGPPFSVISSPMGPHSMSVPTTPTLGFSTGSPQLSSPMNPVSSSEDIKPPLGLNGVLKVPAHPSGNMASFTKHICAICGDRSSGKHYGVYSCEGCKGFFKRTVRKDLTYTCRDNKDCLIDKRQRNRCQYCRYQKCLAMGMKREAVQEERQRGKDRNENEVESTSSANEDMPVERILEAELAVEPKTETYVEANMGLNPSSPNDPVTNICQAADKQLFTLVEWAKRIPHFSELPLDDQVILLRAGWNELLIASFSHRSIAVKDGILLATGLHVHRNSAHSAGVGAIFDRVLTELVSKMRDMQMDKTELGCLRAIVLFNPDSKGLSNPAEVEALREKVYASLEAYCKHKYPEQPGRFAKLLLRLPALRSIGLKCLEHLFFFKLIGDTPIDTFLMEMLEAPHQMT
Assay: no ligand; PBM; 180 nM; PBS pH 7.4, 2% milk, 0.02% Triton X-100, 1 mM DTT, BSA, 0.4 mg/ml salmon testes DNA
Conditions: tags: His cleaved; chain copies: 2; label: surface-attached array probe

Going from B1 to B2, the binding signal rises from -0.54 PBM z-score against 500 random probes to 7.79 PBM z-score against 500 random probes.

First: B3
Second: B4
The binding signal of the first is lower: 9.06 PBM z-score against 500 random probes for the first, 10.8 PBM z-score against 500 random probes for the second.

Biological target: PPARg:RXRa (Homo sapiens, UniProt P37231;P19793 full;full)
Sequence (P37231 29-505, chain 1 of 2): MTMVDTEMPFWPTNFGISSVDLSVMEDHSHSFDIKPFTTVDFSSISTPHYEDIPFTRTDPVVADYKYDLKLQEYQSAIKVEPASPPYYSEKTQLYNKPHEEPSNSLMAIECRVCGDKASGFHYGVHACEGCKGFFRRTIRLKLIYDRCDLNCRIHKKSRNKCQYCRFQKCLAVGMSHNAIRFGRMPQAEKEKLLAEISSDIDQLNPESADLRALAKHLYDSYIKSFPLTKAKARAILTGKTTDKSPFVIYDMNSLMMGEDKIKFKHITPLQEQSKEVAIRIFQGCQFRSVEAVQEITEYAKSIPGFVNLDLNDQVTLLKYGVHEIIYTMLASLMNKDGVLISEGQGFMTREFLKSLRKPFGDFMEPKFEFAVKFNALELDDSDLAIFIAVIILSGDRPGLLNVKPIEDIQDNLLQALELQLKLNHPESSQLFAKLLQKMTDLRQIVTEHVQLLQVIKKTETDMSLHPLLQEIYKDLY
Sequence (P19793 whole entry, chain 2 of 2): as the sequence (P19793 whole entry) above
Assay: no ligand; PBM; 180 nM : 90 nM RXRa; PBS pH 7.4, 2% milk, 0.02% Triton X-100, 1 mM DTT, BSA, 0.4 mg/ml salmon testes DNA
Conditions: tags: His kept;His cleaved; copies: 1;1; label: surface-attached array probe

Going from B5 to B6, the binding signal rises from 6.9 PBM z-score against 500 random probes to 7.03 PBM z-score against 500 random probes.

Compared with B7, B8 is higher in binding signal: 6.78 PBM z-score against 500 random probes for the first, 14.6 PBM z-score against 500 random probes for the second.

Biological target: RARb:RXRa (Homo sapiens, UniProt P10826;P19793 full;full)
Sequence (P10826 whole entry, chain 1 of 2): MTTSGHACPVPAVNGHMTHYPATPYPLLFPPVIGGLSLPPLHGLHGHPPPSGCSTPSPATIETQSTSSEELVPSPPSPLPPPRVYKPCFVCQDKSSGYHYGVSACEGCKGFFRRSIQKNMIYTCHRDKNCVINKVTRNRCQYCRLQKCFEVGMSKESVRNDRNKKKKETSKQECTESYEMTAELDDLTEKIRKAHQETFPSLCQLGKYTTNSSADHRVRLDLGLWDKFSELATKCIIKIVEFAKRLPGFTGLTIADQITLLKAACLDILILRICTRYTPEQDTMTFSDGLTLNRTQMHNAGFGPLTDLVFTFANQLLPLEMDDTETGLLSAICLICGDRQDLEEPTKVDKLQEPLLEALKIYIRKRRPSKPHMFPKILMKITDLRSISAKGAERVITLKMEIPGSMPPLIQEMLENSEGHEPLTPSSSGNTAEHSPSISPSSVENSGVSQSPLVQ
Sequence (P19793 whole entry, chain 2 of 2): as the sequence (P19793 whole entry) above
Assay: no ligand; PBM; 270 nM : 90 nM RXRa; PBS pH 7.4, 2% milk, 0.02% Triton X-100, 1 mM DTT, BSA, 0.4 mg/ml salmon testes DNA
Conditions: tags: His kept;His cleaved; copies: 1;1; label: surface-attached array probe
In short: (§1)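 Binding buffer was PBS pH 7.4 with 2% milk, 0.02% Triton X-100, 1 mM DTT, 0.2 mg/mL BSA and 0.4 mg/ml salmon testes DNA. In it, ligand-free nuclear receptor dimers were incubated 1 h on custom Agilent 4×180K protein-binding microarrays carrying double-stranded probes. Antibodies against each partner (one per run) detected binding, and z-scores were calculated against random background probes after regression normalization of scanned fluorescence.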

Compared with B9, B2 is higher in binding signal: -0.17 PBM z-score against 500 random probes for the first, 6.01 PBM z-score against 500 random probes for the second.

Compared with B3, B10 is lower in binding signal: 6.27 PBM z-score against 500 random probes for the first, 5.57 PBM z-score against 500 random probes for the second.

Biological target: VDR:RXRa (Homo sapiens, UniProt P11473;P19793 full;full)
Sequence (P11473 whole entry, chain 1 of 2): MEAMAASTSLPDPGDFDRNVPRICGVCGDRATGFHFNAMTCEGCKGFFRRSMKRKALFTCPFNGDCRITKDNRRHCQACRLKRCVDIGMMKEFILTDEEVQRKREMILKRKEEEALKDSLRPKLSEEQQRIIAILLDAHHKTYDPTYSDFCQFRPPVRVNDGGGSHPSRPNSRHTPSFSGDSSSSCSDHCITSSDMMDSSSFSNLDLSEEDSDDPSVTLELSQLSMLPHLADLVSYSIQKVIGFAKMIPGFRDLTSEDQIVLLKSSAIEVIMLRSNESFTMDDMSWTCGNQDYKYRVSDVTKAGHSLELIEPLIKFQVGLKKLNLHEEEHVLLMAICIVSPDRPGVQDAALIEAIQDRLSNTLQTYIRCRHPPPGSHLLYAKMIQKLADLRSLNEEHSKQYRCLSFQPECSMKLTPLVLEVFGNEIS
Sequence (P19793 whole entry, chain 2 of 2): as the sequence (P19793 whole entry) above
Assay: as above
Conditions: tags: His kept;His cleaved; copies: 1;1; label: surface-attached array probe
In short: as §1

Compared with B11, B12 is lower in binding signal: 6.99 PBM z-score against 500 random probes for the first, 0.37 PBM z-score against 500 random probes for the second.

First: B10
Second: B4
The binding signal of the first is higher: 7.14 PBM z-score against 500 random probes for the first, 7.07 PBM z-score against 500 random probes for the second.

Biological target: LXRa:RXRa (Homo sapiens, UniProt Q13133;P19793 full;full)
Sequence (Q13133 whole entry, chain 1 of 2): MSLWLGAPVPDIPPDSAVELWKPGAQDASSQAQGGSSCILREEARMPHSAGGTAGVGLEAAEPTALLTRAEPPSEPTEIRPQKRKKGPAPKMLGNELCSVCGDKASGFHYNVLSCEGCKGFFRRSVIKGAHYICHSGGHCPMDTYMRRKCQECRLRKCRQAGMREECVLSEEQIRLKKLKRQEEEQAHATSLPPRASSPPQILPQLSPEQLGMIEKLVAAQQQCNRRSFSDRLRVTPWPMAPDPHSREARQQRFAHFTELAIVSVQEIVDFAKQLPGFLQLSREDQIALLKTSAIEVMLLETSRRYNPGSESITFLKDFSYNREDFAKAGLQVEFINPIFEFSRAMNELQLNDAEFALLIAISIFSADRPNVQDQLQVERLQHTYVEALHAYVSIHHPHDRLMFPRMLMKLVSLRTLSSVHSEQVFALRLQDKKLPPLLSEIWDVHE
Sequence (P19793 whole entry, chain 2 of 2): as the sequence (P19793 whole entry) above
Assay: as above
Conditions: tags: His kept;His cleaved; copies: 1;1; label: surface-attached array probe
In short: as §1

First: B13
Second: B11
The binding signal of the first is lower: 0.28 PBM z-score against 500 random probes for the first, 8.36 PBM z-score against 500 random probes for the second.

Compared with B14, B15 is lower in binding signal: 0.41 PBM z-score against 500 random probes for the first, -0.01 PBM z-score against 500 random probes for the second.

Going from B16 to B17, the binding signal rises from -0.82 PBM z-score against 500 random probes to -0.44 PBM z-score against 500 random probes.

Compared with B18, B1 is lower in binding signal: 3.8 PBM z-score against 500 random probes for the first, -0.75 PBM z-score against 500 random probes for the second.

Going from B19 to B2, the binding signal rises from -0.41 PBM z-score against 500 random probes to 6.69 PBM z-score against 500 random probes.

Going from B3 to B10, the binding signal falls from 7.32 PBM z-score against 500 random probes to 6.64 PBM z-score against 500 random probes.

B4 was tested, and the binding signal was 7.81 PBM z-score against 500 random probes.

Biological target: PPARa:RXRa (Homo sapiens, UniProt Q07869;P19793 full;full)
Sequence (Q07869 whole entry, chain 1 of 2): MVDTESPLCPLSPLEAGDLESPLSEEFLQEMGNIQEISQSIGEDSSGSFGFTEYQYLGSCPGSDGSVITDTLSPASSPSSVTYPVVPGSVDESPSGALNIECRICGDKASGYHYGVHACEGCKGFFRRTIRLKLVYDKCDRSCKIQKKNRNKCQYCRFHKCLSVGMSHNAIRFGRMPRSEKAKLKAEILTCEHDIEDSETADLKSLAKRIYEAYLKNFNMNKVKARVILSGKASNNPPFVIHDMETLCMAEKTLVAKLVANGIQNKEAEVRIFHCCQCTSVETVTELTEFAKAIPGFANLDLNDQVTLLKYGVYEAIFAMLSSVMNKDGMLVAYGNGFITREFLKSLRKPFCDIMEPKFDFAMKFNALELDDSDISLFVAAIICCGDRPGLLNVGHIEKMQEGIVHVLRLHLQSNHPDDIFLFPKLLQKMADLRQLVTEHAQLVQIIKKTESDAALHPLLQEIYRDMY
Sequence (P19793 whole entry, chain 2 of 2): as the sequence (P19793 whole entry) above
Assay: as above
Conditions: tags: GST kept;His cleaved; copies: 1;1; label: surface-attached array probe
In short: as §1

B3 was tested, and the binding signal was 6.96 PBM z-score against 500 random probes.

Biological target: LXRb:RXRa (Homo sapiens, UniProt P55055;P19793 full;full)
Sequence (P55055 whole entry, chain 1 of 2): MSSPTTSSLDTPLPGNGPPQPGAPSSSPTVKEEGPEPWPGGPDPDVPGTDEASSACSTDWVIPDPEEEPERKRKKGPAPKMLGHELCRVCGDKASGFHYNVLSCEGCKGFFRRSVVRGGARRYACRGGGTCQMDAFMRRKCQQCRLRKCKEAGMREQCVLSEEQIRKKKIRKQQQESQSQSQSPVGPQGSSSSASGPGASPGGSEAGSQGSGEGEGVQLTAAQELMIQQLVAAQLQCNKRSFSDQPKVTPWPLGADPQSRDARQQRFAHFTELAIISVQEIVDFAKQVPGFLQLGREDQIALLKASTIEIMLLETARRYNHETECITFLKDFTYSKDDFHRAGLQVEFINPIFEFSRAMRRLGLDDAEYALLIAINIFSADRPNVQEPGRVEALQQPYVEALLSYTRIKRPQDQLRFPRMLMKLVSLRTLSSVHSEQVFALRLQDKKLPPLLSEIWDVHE
Sequence (P19793 whole entry, chain 2 of 2): as the sequence (P19793 whole entry) above
Assay: as above
Conditions: tags: His kept;His cleaved; copies: 1;1; label: surface-attached array probe
In short: as §1

First: B9
Second: B11
The binding signal of the first is lower: -0.41 PBM z-score against 500 random probes for the first, 7.25 PBM z-score against 500 random probes for the second.

Going from B12 to B2, the binding signal rises from 0.07 PBM z-score against 500 random probes to 5.84 PBM z-score against 500 random probes.

First: B3
Second: B20
The binding signal of the first is higher: 6.25 PBM z-score against 500 random probes for the first, -1 PBM z-score against 500 random probes for the second.

For B21, the binding signal was 0.06 PBM z-score against 500 random probes.

Biological target: FXR:RXRa (Homo sapiens, UniProt Q96RI1;P19793 full;full)
Sequence (Q96RI1 whole entry, chain 1 of 2): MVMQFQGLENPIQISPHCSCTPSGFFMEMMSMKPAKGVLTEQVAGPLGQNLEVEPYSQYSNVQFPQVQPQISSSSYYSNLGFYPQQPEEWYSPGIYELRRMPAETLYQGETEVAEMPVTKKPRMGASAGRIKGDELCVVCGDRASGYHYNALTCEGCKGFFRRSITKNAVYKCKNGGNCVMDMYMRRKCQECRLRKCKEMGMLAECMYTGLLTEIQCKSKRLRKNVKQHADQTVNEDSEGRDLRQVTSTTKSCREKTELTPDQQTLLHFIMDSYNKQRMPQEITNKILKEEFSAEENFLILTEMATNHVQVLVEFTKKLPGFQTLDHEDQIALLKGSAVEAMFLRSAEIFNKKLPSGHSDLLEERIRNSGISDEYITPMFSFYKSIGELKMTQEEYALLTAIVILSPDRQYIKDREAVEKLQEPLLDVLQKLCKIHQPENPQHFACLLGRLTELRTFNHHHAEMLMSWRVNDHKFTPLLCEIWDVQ
Sequence (P19793 whole entry, chain 2 of 2): as the sequence (P19793 whole entry) above
Assay: as above
Conditions: tags: His kept;His cleaved; copies: 1;1; label: surface-attached array probe
In short: as §1

First: B19
Second: B2
The binding signal of the first is lower: -0.27 PBM z-score against 500 random probes for the first, 8.19 PBM z-score against 500 random probes for the second.

Going from B3 to B4, the binding signal falls from 8.82 PBM z-score against 500 random probes to 8.73 PBM z-score against 500 random probes.

Biological target: PXR:RXRa (Homo sapiens, UniProt O75469;P19793 full;full)
Sequence (O75469 whole entry, chain 1 of 2): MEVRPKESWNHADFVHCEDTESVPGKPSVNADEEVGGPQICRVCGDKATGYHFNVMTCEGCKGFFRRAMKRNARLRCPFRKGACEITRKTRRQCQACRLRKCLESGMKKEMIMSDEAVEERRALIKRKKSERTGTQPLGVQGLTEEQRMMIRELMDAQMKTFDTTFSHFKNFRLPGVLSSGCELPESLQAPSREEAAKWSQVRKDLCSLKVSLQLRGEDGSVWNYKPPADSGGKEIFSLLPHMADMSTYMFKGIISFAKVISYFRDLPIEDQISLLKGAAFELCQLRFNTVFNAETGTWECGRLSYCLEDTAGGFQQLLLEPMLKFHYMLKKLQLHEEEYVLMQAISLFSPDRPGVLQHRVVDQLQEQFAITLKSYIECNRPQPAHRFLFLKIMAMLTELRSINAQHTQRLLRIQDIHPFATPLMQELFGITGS
Sequence (P19793 whole entry, chain 2 of 2): as the sequence (P19793 whole entry) above
Assay: as above
Conditions: tags: His kept;His cleaved; copies: 1;1; label: surface-attached array probe
In short: as §1

Going from B9 to B13, the binding signal rises from -0.66 PBM z-score against 500 random probes to 0.04 PBM z-score against 500 random probes.

Compared with B11, B14 is lower in binding signal: 6.87 PBM z-score against 500 random probes for the first, 0.4 PBM z-score against 500 random probes for the second.

Going from B12 to B15, the binding signal rises from -0.14 PBM z-score against 500 random probes to 0.42 PBM z-score against 500 random probes.

Compared with B16, B17 is higher in binding signal: -1.27 PBM z-score against 500 random probes for the first, -0.52 PBM z-score against 500 random probes for the second.

Going from B18 to B1, the binding signal falls from 3.42 PBM z-score against 500 random probes to -0.74 PBM z-score against 500 random probes.

Going from B19 to B2, the binding signal rises from 0.06 PBM z-score against 500 random probes to 6.47 PBM z-score against 500 random probes.

Going from B3 to B20, the binding signal falls from 6.64 PBM z-score against 500 random probes to -0.65 PBM z-score against 500 random probes.

First: B21
Second: B10
The binding signal of the first is lower: -0.37 PBM z-score against 500 random probes for the first, 7.03 PBM z-score against 500 random probes for the second.

B4 was tested, and the binding signal was 7.42 PBM z-score against 500 random probes.

Biological target: RARg:RXRa (Homo sapiens, UniProt P13631;P19793 full;full)
Sequence (P13631 whole entry, chain 1 of 2): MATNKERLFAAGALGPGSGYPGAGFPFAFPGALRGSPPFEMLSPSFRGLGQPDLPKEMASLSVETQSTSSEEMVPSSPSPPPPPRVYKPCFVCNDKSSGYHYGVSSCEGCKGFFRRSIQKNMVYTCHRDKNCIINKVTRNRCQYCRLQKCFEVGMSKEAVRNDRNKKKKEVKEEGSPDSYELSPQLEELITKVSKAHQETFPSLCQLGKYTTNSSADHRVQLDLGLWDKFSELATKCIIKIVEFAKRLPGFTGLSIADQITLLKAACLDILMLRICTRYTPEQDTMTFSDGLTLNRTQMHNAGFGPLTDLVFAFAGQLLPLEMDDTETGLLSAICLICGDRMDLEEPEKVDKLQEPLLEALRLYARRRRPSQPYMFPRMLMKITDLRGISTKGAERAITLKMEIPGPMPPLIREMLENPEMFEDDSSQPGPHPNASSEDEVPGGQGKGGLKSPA
Sequence (P19793 whole entry, chain 2 of 2): as the sequence (P19793 whole entry) above
Assay: as above
Conditions: tags: His kept;His cleaved; copies: 1;1; label: surface-attached array probe
In short: as §1

Compared with B9, B2 is higher in binding signal: -0.66 PBM z-score against 500 random probes for the first, 7.39 PBM z-score against 500 random probes for the second.

Compared with B3, B21 is lower in binding signal: 8.38 PBM z-score against 500 random probes for the first, -0.64 PBM z-score against 500 random probes for the second.
